T1: mouse CD93 on transfected HEK293T cells (mouse, UniProt O89103 23-644)
T1 construct: whole, on cells; also called mCD93
T1 sequence (looked up): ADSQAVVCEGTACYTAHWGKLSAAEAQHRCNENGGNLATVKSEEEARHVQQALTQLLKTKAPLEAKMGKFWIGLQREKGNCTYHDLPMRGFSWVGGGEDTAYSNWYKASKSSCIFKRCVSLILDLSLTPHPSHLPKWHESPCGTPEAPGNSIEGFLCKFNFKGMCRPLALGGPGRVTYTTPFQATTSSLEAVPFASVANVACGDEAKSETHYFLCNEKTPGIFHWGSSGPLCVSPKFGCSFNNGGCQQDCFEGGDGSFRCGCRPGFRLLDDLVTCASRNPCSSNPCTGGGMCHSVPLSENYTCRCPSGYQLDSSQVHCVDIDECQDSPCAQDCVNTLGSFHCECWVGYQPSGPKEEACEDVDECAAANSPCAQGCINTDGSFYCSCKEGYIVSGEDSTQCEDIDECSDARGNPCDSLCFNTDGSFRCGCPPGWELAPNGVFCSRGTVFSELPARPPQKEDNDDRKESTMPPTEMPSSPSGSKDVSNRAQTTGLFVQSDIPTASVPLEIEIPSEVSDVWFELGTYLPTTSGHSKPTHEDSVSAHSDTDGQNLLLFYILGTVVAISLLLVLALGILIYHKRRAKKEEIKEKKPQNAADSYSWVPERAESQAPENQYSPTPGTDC

B1: IGFBP7 protein (R&D Systems), labelled with a His-Tag Labeling Kit for MST (ligand)
chain: SSSDTCGPCEPASCPPLPPLGCLLGETRDACGCCPMCARGEGEPCGGGGAGRGYCAPGMECVKSRKRRKGKAGAAAGGPGVSGVCVCKSRYPVCGSDGTTYPSGCQLRAASQRAESRGEKAITQVSKGTCEQGPSIVTPPKDIWNVTGAQVYLSCEVIGIPTPVLIWNKVKRGHYGVQRTELLPGDRDNLAIQTRGGPEKHEVTGWVLVSPLSKEDAGEYECHASNSQGQASASAKITVVDALHEIPVKKGEGAEL
modifications: RED-tris-NTA fluorescent dye bound to the His tag
notes: Bought; also called human IGFBP7; not shown: His tag implied by the His-Tag Labeling Kit
B2: recombinant human CD93 protein (R&D Systems) (receptor)
chain: ADTEAVVCVGTACYTAHSGKLSAAEAQNHCNQNGGNLATVKSKEEAQHVQRVLAQLLRREAALTARMSKFWIGLQREKGKCLDPSLPLKGFSWVGGGEDTPYSNWHKELRNSCISKRCVSLLLDLSQPLLPSRLPKWSEGPCGSPGSPGSNIEGFVCKFSFKGMCRPLALGGPGQVTYTTPFQTTSSSLEAVPFASAANVACGEGDKDETQSHYFLCKEKAPDVFDWGSSGPLCVSPKYGCNFNNGGCHQDCFEGGDGSFLCGCRPGFRLLDDLVTCASRNPCSSSPCRGGATCVLGPHGKNYTCRCPQGYQLDSSQLDCVDVDECQDSPCAQECVNTPGGFRCECWVGYEPGGPGEGACQDVDECALGRSPCAQGCTNTDGSFHCSCEEGYVLAGEDGTQCQDVDECVGPGGPLCDSLCFNTQGSFHCGCLPGWVLAPNGVSCTMGPVSLGPPSGPPDEEDKGEKEGSTVPRAATASPTRGPEGTPKATPTTSRPSLSSDAPITSAPLKMLAPSGSPGVWREPSIHHATAASGPQEPAGGDSSVATQNNDGTDGQK
notes: Bought soluble protein
B3: Mouse IGFBP7 (Fc-tag), Sino Biological (Fc fusion, UniProt Q61581 26-281, looked up)
chain: SSSDACGPCVPASCPALPRLGCPLGETRDACGCCPVCARGEGEPCGGGAAGRGHCAPGMECVKSRKRRKGKAGAAAGGPATLAVCVCKSRYPVCGSNGITYPSGCQLRAASLRAESRGEKAITQVSKGTCEQGPSIVTPPKDIWNVTGAKVFLSCEVIGIPTPVLIWNKVKRDHSGVQRTELLPGDRENLAIQTRGGPEKHEVTGWVLVSPLSKEDAGEYECHASNSQGQASAAAKITVVDALHEIPLKKGEGAQL
notes: also called mouse IGFBP7-Ig; not shown: Fc tag

How the values were obtained:
[1] = molecular target: B2; assay: microscale thermophoresis: 10 nM labelled IGFBP7, CD93 titrated from 5.9 uM to 180 pM (FIG. 4E)
[2] = molecular target: B1; assay: microscale thermophoresis (MST), CD93 titrated against 10 nM labelled IGFBP7
[3] = molecular target: T1, mouse CD93 on transfected HEK293T cells; assay: flow cytometry, mouse IGFBP7-Ig on mouse CD93-transduced or control HEK293T cells

Binder: B1
Kd [1]: 53.1 nM

Binder: B2
EC50 (read off the curve) [2]: ~50 nM

Binder: B3
binding result [3]: binds

Source: US20220235136A1 (YALE UNIVERSITY, published 2022)
